# Substitutions are numbered along the chain they refer to. Numbers in names are those of the source.
# B1: HPV1a GST-L2 fusion protein, L2 amino acids 347-507 (other)
# chain: GARTHFFYDLSSIAPEDSIELLPLGEHSQTTVISSNLGDTAFIQGETAEDDLEVISLETPQLYSEEELLDTNESVGENLQLTITNSEGEVSILDLTQSRVRPPFGTEDTSLHVYYPNSSKGTPIINPEESFTPLVIIALNNSTGDFELHPSLRKRRKRAYV
# notes: range 347-507; also called HPV1a L2; not shown: glutathione-S-transferase (GST) fusion partner from vector pXA/BN (multiple cloning site of pGEX-4T-2); thrombin-cleavab
# B2: BPV1 GST-L2 fusion protein, L2 amino acids 316-469 (other)
# chain: GPQLHVRYSLSTIHEDVEAIPYTVDENTQGLAFVPLHEEQAGFEEIELDDFSETHRLLPQNTSSTPVGSGVRRSLIPTQEFSATRPTGVVTYGSPDTYSASPVTDPDSTSPSLVIDDTTTTPIIIIDGHTVDLYSSNYTLHPSLLRKRKKRKHA
# notes: range 316-469; Cloned as a BamHI/XhoI fragment; also called BPV1 L2; not shown: glutathione-S-transferase (GST) fusion partner from vector pXA/BN (multiple cloning site of pGEX-4T-2); thrombin-cleavab
# B3: HPV11 GST-L2 (313-455) (other)
# chain: GARIHYFQDISPVTQAAEEIELHPLVAAENDTFDIYAEPFDPIPDPVQHSVTQSYLTSTPNTLSQSWGNTTVPLSIPSDWFVQSGPDITFPTASMGTPFSPVTPALPTGPVFITGSDFYLHPTWYFARRRRKRIPLFFTDVAA
# notes: Carboxy-terminal third of HPV11 L2; also called pXA/BN-HPV11L2/313-455; HPV GST=L2(313455); not shown: glutathione-S-transferase (GST) fusion partner from vector pXA/BN (multiple cloning site of pGEX-4T-2); thrombin-cleavab
# B4: HPV11 GST-L2 (313-455) double mutant AL417-418EE (other)
# chain: B3 chain with A105E, L106E
# notes: The text says 'changed to glutamines' but prints EE and speaks of negatively charged residues; also called pXA/BN-HPV11L2/313-455/AL417418EE; not shown: N-terminal GST fusion partner and its thrombin linker (vector pXA/BN with the pGEX-4T-2 cloning site)
# B5: HPV11 GST-L2 (313-455) mutant A417E (other)
# chain: B3 chain with A105E
# notes: also called pXA/BN-HPV11L2/313-455/A417E; not shown: N-terminal GST fusion partner and its thrombin linker (vector pXA/BN with the pGEX-4T-2 cloning site)
# B6: HPV11 GST-L2 (313-455) mutant L418E (other)
# chain: B3 chain with L106E
# notes: not shown: N-terminal GST fusion partner and its thrombin linker (vector pXA/BN with the pGEX-4T-2 cloning site)
# B7: HPV11 GST-L2 (313-455) mutant P413A (other)
# chain: B3 chain with P101A
# notes: also called pXA/BN-HPV11L2/313-455/P413A; not shown: N-terminal GST fusion partner and its thrombin linker (vector pXA/BN with the pGEX-4T-2 cloning site)
# B8: HPV11 GST-L2 (313-455) mutant P416A (other)
# chain: B3 chain with P104A
# notes: also called pXA/BN-HPV11L2/313-455/P416A; not shown: N-terminal GST fusion partner and its thrombin linker (vector pXA/BN with the pGEX-4T-2 cloning site)
# B9: HPV11 GST-L2 (313-455) mutant P419A (other)
# chain: B3 chain with P107A
# notes: also called pXA/BN-HPV11L2/313-455/P419A; not shown: N-terminal GST fusion partner and its thrombin linker (vector pXA/BN with the pGEX-4T-2 cloning site)
# B10: HPV6b GST-L2 fusion protein, L2 amino acids 316-459 (other)
# chain: RIHYFYDISPIAQAAEEIEMHPLVAAQDDTFDIYAESFEPGINPTQHPVTNISDTYLTSTPNTVTQPWGNTTVPLSLPNDPFLQSGPDITFPTAPMGTPFSPVTPALPTGPVFITGSGFYLHPAWYFARKRRKRIPLFFSDVAA
# notes: also called HPV6b L2; not shown: glutathione-S-transferase (GST) fusion partner from vector pXA/BN (multiple cloning site of pGEX-4T-2); thrombin-cleavab
# B11: HPV16 GST-L2 fusion protein, L2 amino acids 321-473 (other)
# chain: GAKVHYYYDLSTIDPAEEIELQTITPSTYTTTSHAASPTSINNGLYDIYADDFITDTSTTPVPSVPSTSLSGYIPANTTIPFGGAYNIPLVSGPDIPINITDQAPSLIPIVPGSPQYTIIADAGDFYLHPSYYMLRKRRKRLPYFFSDVSLAA
# notes: also called HPV16 L2; not shown: glutathione-S-transferase (GST) fusion partner from vector pXA/BN (multiple cloning site of pGEX-4T-2); thrombin-cleavab
# B12: HPV33 GST-L2 fusion protein, L2 amino acids 319-467 (other)
# chain: GARIHYYQDLSPIVPLDHTVPNEQYELQPLHDTSTSSYSINDGLYDVYADDVDNVHTPMQHSYSTFATTRTSNVSIPLNTGFDTPVMSGPDIPSPLFPTSSPFVPISPFFPFDTIVVDGADFVLHPSYFILRRRRKRFPYFFTDVRVAA
# notes: also called HPV33 L2; not shown: glutathione-S-transferase (GST) fusion partner from vector pXA/BN (multiple cloning site of pGEX-4T-2); thrombin-cleavab
# B13: HPV11 GST-L2 fusion protein, L2 amino acids 1-455 (full length) (other)
# chain: MKPRARRRKRASATQLYQTCKATGTCPPDVIPKVEHTTIADQILKWGSLGVFFGGLGIGTGAGSGGRAGYIPLGSSPKPAITGGPAARPPVLVEPVAPSDPSIVSLIEESAIINAGAPEVVPPTQGGFTITSSESTTPAILDVSVTNHTTTSVFQNPLFTEPSVIQPQPPVEASGHILISAPTITSQHVEDIPLDTFVVSSSDSGPTSSTPLPRAFPRPRVGLYSRALQQVQVTDPAFLSTPQRLVTYDNPVYEGEDVSLQFTHESIHNAPDEAFMDIIRLHRPAITSRRGLVRFSRIGQRGSMYTRSGQHIGARIHYFQDISPVTQAAEEIELHPLVAAENDTFDIYAEPFDPIPDPVQHSVTQSYLTSTPNTLSQSWGNTTVPLSIPSDWFVQSGPDITFPTASMGTPFSPVTPALPTGPVFITGSDFYLHPTWYFARRRRKRIPLFFTDVAA
# notes: also called pXA/BN-HPV11 L2; not shown: glutathione-S-transferase (GST) fusion partner from vector pXA/BN (multiple cloning site of pGEX-4T-2); thrombin-cleavab
# B14: HPV11 GST-L2 fusion protein, L2 amino acids 157-455 (other)
# chain: PLFTEPSVIQPQPPVEASGHILISAPTITSQHVEDIPLDTFVVSSSDSGPTSSTPLPRAFPRPRVGLYSRALQQVQVTDPAFLSTPQRLVTYDNPVYEGEDVSLQFTHESIHNAPDEAFMDIIRLHRPAITSRRGLVRFSRIGQRGSMYTRSGQHIGARIHYFQDISPVTQAAEEIELHPLVAAENDTFDIYAEPFDPIPDPVQHSVTQSYLTSTPNTLSQSWGNTTVPLSIPSDWFVQSGPDITFPTASMGTPFSPVTPALPTGPVFITGSDFYLHPTWYFARRRRKRIPLFFTDVAA
# notes: also called pXA/BN-HPV11L2/157-455; not shown: glutathione-S-transferase (GST) fusion partner from vector pXA/BN (multiple cloning site of pGEX-4T-2); thrombin-cleavab
# B15: HPV11 GST-L2 fusion protein, L2 amino acids 346-455 (other)
# chain: DIYAEPFDPIPDPVQHSVTQSYLTSTPNTLSQSWGNTTVPLSIPSDWFVQSGPDITFPTASMGTPFSPVTPALPTGPVFITGSDFYLHPTWYFARRRRKRIPLFFTDVAA
# notes: also called pXA/BN-HPV11L2/346-455; not shown: glutathione-S-transferase (GST) fusion partner from vector pXA/BN (multiple cloning site of pGEX-4T-2); thrombin-cleavab
# B16: HPV11 GST-L2 fusion protein, L2 amino acids 396-455 (other)
# chain: SGPDITFPTASMGTPFSPVTPALPTGPVFITGSDFYLHPTWYFARRRRKRIPLFFTDVAA
# notes: also called pXA/BN-HPV11L2/396-455; not shown: glutathione-S-transferase (GST) fusion partner from vector pXA/BN (multiple cloning site of pGEX-4T-2); thrombin-cleavab
# B17: HPV11 GST-L2 fusion protein, L2 amino acids 346-439 (other)
# chain: DIYAEPFDPIPDPVQHSVTQSYLTSTPNTLSQSWGNTTVPLSIPSDWFVQSGPDITFPTASMGTPFSPVTPALPTGPVFITGSDFYLHPTWYFA
# notes: also called pXA/BN-HPV11L2/346-439; not shown: glutathione-S-transferase (GST) fusion partner from vector pXA/BN (multiple cloning site of pGEX-4T-2); thrombin-cleavab
# B18: HPV11 GST-L2 fusion protein, L2 amino acids 396-439 (other)
# chain: SGPDITFPTASMGTPFSPVTPALPTGPVFITGSDFYLHPTWYFA
# notes: also called pXA/BN-HPV11L2/396-439; not shown: glutathione-S-transferase (GST) fusion partner from vector pXA/BN (multiple cloning site of pGEX-4T-2); thrombin-cleavab
# B19: HPV11 GST-L2 fusion protein, L2 amino acids 1-156 (other)
# chain: MKPRARRRKRASATQLYQTCKATGTCPPDVIPKVEHTTIADQILKWGSLGVFFGGLGIGTGAGSGGRAGYIPLGSSPKPAITGGPAARPPVLVEPVAPSDPSIVSLIEESAIINAGAPEVVPPTQGGFTITSSESTTPAILDVSVTNHTTTSVFQN
# notes: also called pXA/BN-HPV11L2/1-156; not shown: glutathione-S-transferase (GST) fusion partner from vector pXA/BN (multiple cloning site of pGEX-4T-2); thrombin-cleavab
# B20: HPV11 GST-L2 fusion protein, L2 amino acids 1-309 (other)
# chain: MKPRARRRKRASATQLYQTCKATGTCPPDVIPKVEHTTIADQILKWGSLGVFFGGLGIGTGAGSGGRAGYIPLGSSPKPAITGGPAARPPVLVEPVAPSDPSIVSLIEESAIINAGAPEVVPPTQGGFTITSSESTTPAILDVSVTNHTTTSVFQNPLFTEPSVIQPQPPVEASGHILISAPTITSQHVEDIPLDTFVVSSSDSGPTSSTPLPRAFPRPRVGLYSRALQQVQVTDPAFLSTPQRLVTYDNPVYEGEDVSLQFTHESIHNAPDEAFMDIIRLHRPAITSRRGLVRFSRIGQRGSMYTRSG
# notes: also called pXA/BN-HPV11L2/1-309; not shown: glutathione-S-transferase (GST) fusion partner from vector pXA/BN (multiple cloning site of pGEX-4T-2); thrombin-cleavab
# B21: HPV11 GST-L2 fusion protein, L2 amino acids 157-309 (other)
# chain: PLFTEPSVIQPQPPVEASGHILISAPTITSQHVEDIPLDTFVVSSSDSGPTSSTPLPRAFPRPRVGLYSRALQQVQVTDPAFLSTPQRLVTYDNPVYEGEDVSLQFTHESIHNAPDEAFMDIIRLHRPAITSRRGLVRFSRIGQRGSMYTRSG
# notes: also called pXA/BN-HPV11L2/157-309; not shown: glutathione-S-transferase (GST) fusion partner from vector pXA/BN (multiple cloning site of pGEX-4T-2); thrombin-cleavab
# B22: HPV11 GST-L2 fusion protein, L2 amino acids 313-400 (other)
# chain: GARIHYFQDISPVTQAAEEIELHPLVAAENDTFDIYAEPFDPIPDPVQHSVTQSYLTSTPNTLSQSWGNTTVPLSIPSDWFVQSGPDI
# notes: also called pXA/BN-HPV11L2/313-400; not shown: glutathione-S-transferase (GST) fusion partner from vector pXA/BN (multiple cloning site of pGEX-4T-2); thrombin-cleavab
# Target: T1, HPV11 L1 protein (human papillomavirus type 11, UniProt P04012 1-501)
# T1 construct: Full-length HPV11 L1 DNA amplified from pVL11L1
# T1 sequence: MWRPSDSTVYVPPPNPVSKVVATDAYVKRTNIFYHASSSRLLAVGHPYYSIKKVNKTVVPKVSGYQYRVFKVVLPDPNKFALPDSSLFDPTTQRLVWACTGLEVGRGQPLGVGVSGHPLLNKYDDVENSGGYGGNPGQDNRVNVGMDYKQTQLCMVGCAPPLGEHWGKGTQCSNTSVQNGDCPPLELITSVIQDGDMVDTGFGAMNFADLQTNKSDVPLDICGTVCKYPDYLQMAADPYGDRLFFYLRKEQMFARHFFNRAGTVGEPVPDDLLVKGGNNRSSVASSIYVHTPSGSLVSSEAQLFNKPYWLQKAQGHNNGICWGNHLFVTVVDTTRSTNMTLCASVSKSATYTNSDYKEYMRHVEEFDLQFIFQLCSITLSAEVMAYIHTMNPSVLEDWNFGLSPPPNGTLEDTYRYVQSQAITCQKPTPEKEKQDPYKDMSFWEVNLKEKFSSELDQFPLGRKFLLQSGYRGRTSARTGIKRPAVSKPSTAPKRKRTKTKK
# Assay: co-expression in E. coli, glutathione sepharose eluate, immunoblot and Coomassie densitometry
row,Molecule,binding result
1,B1,no binding
2,B2,no binding

# Target: T1, HPV11 L1 protein
# Assay: co-expression, glutathione sepharose eluate, densitometry
Molecule,L1:L2,binding result
B3,2 L1:L2 ratio,
B4,0.33 L1:L2 ratio,
B5,1 L1:L2 ratio,
B6,,binds
B7,,binds
B8,,binds
B9,,binds

# Target: T1, HPV11 L1 protein
# Assay: co-expression, glutathione sepharose eluate, densitometry of Coomassie-stained SDS-PAGE
row,Molecule,L1:L2
1,B10,> 1 L1:L2 ratio
2,B11,> 1 L1:L2 ratio
3,B12,> 1 L1:L2 ratio
4,B3,> 1 L1:L2 ratio

# Target: T1, HPV11 L1 protein
# Assay: densitometry after size exclusion chromatography of the complex
row,Molecule,L1:L2
1,B3,~5 L1:L2 ratio

# Target: T1, HPV11 L1 protein
# Assay: co-expression in E. coli, glutathione sepharose eluate, SDS-PAGE
# Description: The lysates were then treated with 10 units/ml DNAse I in the presence of 5 mM MgCl2 for 30 minutes. […] Lysates were briefly sonicated, then centrifuged at 17,000 G for one hour and the supernatant was passed over a 10 mL bed volume glutathione sepharose column. […] The columns were washed with buffer L (40 mM Tris-Cl, pH 8.0, 0.2 M NaCl, 1 mM EDTA, 2 mM DTT) until no protein was detectable in the wash (approximately 20 bed volumes). To purify L1+GST-L2 complexes, bound proteins were eluted with 10 mM reduced glutathione in buffer L. The eluates were concentrated using Centriplus concentrators (Amicon). To further purify L1+L2 complexes from contaminating bacterial proteins, free L2 and L2 degradation products, eluted proteins were subjected to size exclusion fast pressure chromatography (FPLC) using a HiLoad Superdex 200 gel filtration column (Pharmacia). FPLC fractions containing complexes were pooled and further concentrated as outlined above. Protein complexes were analyzed by SDS-PAGE followed by Coomassie blue staining or immunoblotting. For densitometric analysis on Coomassie-stained gels, images were captured using a fluor-S MultiImager (Bio-Rad) with Quantity One software (BioRad) and quantitated using ImageQuant software (Molecular Dynamics). Using this strategy, L1 will be present upon elution from glutathione-sepharose only if it is bound to GST-L2.
# The ability of each L2 protein to bind HPV11 L1 was determined by the presence or absence of L1 in the eluate from the glutathione sepharose column as measured by SDS-PAGE.
row,Molecule,binding result
1,B13,binds
2,B14,binds
3,B15,binds
4,B16,binds
5,B17,binds
6,B18,binds
7,B19,no binding
8,B20,no binding
9,B21,no binding
10,B22,no binding

# Target: HPV11 L1 protein (human papillomavirus type 11) (UniProt P04012)
# Assay: co-expression, glutathione sepharose eluate, densitometry of Coomassie-stained SDS-PAGE
row,Molecule,L1:L2
1,"HPV5 GST-L2 fusion protein, L2 amino acids 376-518 (from UniProt P06918 376-518)",< 1 L1:L2 ratio
2,"COPV1 GST-L2 fusion protein, L2 amino acids 360-513 (from UniProt P08515 1-218)",< 1 L1:L2 ratio
3,"HPV12 GST-L2 fusion protein, L2 amino acids 360-518 (from UniProt P08515 1-218)",< 1 L1:L2 ratio

# Target: T1, HPV11 L1 protein
# Assay: densitometry of partially purified glutathione sepharose eluates
row,Molecule,L1:L2
1,B3,~2 L1:L2 ratio

# Reference: patent US20090220535A1 (REGENTS OF THE UNIVERSITY OF COLORADO, published 2009)
